Data as given in US20260250320A1, “LIPIDATED PEPTIDE INHIBITORS OF INTERLEUKIN-23 RECEPTOR” (Janssen Pharmaceutica NV, priority 2023, published 2026).
*1 amine or outer side, *2 acyl side, *3 side chain or, on linkers, in order; H or OH if unused. Bridges are numbered along the chain shown (N, C = ends). Primed or numbered codes have the meaning given here. Side-chain parts run from the residue outwards. [ ]: non-standard residue; d: D form. The star is where a group is joined. TMAPF = 5-(4-(2-amino-2-carboxyethyl)phenoxy)-N,N,N-trimethylpentan-1-aminium, C[N+](C)(C)CCCCCOc1ccc(C[C@H](N[*:1])C(=O)[*:2])cc1; Biotin = O=C1N[C@H]2[C@H](CS[C@H]2CCCCC(=O)*)N1; Trp(7-Me) = Cc1cccc2c(C[C@H](N)C(=O)O)c[nH]c12; γGlu = O=C(O)[C@H](CCC(=O)[*:2])N[*:1]; 2Nal = N[C@@H](Cc1ccc2ccccc2c1)C(=O)O; AEF = NCCOc1ccc(C[C@H](N)C(=O)O)cc1; 3Pal = N[C@@H](Cc1cccnc1)C(=O)O; NMecPEG3a = not defined here; Pen = CC(C)(S)[C@H](N)C(=O)O; PEG2″ = PEG2 spacer unit; PEG4′ = not defined here; Thp = NC1(C(=O)O)CCOCC1; Sar = CNCC(=O)O

Columns and labels:
Test in all cases: cell-based or functional assay
[1] = target: interleukin-23 receptor (IL-23R) (UniProt Q5VWK5)
[2] = target: T1, interleukin-23 receptor (IL-23R) (UniProt Q5VWK5 24-629, limits assumed)
T1 sequence (looked up): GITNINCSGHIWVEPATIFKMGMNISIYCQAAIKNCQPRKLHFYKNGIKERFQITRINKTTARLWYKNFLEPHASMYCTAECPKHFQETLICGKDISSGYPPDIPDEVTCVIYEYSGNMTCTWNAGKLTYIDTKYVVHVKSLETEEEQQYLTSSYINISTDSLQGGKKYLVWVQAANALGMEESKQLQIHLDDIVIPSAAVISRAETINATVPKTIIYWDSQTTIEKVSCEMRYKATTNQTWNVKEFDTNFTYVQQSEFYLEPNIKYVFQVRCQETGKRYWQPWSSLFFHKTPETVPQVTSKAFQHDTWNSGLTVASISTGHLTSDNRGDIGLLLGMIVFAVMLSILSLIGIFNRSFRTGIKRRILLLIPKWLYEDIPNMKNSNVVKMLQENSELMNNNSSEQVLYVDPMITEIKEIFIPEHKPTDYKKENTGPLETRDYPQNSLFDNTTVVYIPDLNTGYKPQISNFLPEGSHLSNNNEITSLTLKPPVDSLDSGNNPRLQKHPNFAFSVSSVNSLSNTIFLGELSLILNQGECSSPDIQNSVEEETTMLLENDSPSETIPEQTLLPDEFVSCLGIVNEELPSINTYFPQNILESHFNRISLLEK

[3] = target: T1, interleukin-23 receptor (IL-23R); remark: listed apart in the source

Molecule | EC90, IL23R reporter assay [1] [ng/mL] | IC50, IL23R reporter assay [2] [nM] | PBMC pSTAT3 IC50 [3] [nM]
interleukin-23 (IL-23) (from UniProt Q9NPF7 20-189; P29460 23-328) (ligand) | 10 |  | 
Ac-K([PEG2″-PEG2″-γGlu-C18OH])[Pen]NT[Trp(7-Me)]K(Ac)[Pen][TMAPF][2Nal][Thp]K(Ac)N[3Pal][Sar]-NH2 (disulfide 2-7 (inferred)) [SEQ ID NO: 62] |  | < 50 | < 0.5
{Biotin-PEG4′}-[dR][Pen]NT[Trp(7-Me)]K(Ac)[Pen][AEF][2Nal][Thp]EN[3Pal][Sar]K([PEG2″-PEG2″-γGlu-C18OH])-NH2 (disulfide 2-7) [SEQ ID NO: 57] |  | < 50 | < 0.5
{HOC18-γGlu-PEG2″-PEG2″}-[dR][Pen]NT[Trp(7-Me)]K(Ac)[Pen][AEF][2Nal][Thp]EN[3Pal][Sar]-NH2 (disulfide 2-7) [SEQ ID NO: 60] |  | < 50 | < 0.5
Ac-[dR][Pen]NT[Trp(7-Me)]K(NMecPEG3a)[Pen][AEF][2Nal][Thp]EN[3Pal][Sar]K([PEG2″-PEG2″-C18OH])-NH2 (disulfide 2-7 (inferred); reading uncertain; also: printed as MeCO-r-Pen(3)-N-T-7MeW-K(NMecPEG3a)-Pen(3)-AEF-2Nal-THP-E-N-3Pya-Sar-K(PEG2PEG2C18OH)-CONH2) [SEQ ID NO: 70] |  | < 50 | < 0.5
XNTXXXXXXENXX (HOC18gEPEG2PEG2CO-Pen(3)-N-T-7MeW-K(Ac)-Pen(3)-AEF-2Nal-THP-E-N-3Pya-Sar-CONH2) [SEQ ID NO: 61] |  | < 50 | < 0.5
